Where a chain is given by its changes, count along the chain named. Where no end group is shown, it is not given here.
B1: ZIL69: fully canine anti IL-31 antibody, VH SEQ ID NO: 91, VL SEQ ID NO: 93 (antibody, listed as Canis familiaris, V domains shown)
VH: EVQLVESGGDLVKPAGSLRLSCVASGFTFSSYAMKWVRQAPGKGLQWVATINNDGTRTGYADAVRGRFTISKDNAKNTLYLQMDSLRADDTAVYYCTKGNAESGCTGDHCPPYWGQGTLVTVSS
VL: SSVLTQPPSVSVSLGQTATISCSGESLNKYYAQWFQQKAGQAPVLVIYKDTERPSGIPDRFSGSSAGNTHTLTISGARAEDEADYYCESAVSSETNVFGSGTQLTVL
B2: ZIL171: fully canine anti IL-31 antibody, VH SEQ ID NO: 107, VL SEQ ID NO: 109 (antibody, listed as Canis familiaris, V domains shown)
VH: EVQLVESGGDLVKPAGSLRLSCVASGFTFRTYVMNWVRQAPGKGLQWVASINGGGSSPTYADAVRGRFTVSRDNAQNSLFLQMNSLRAEDTAIYFCVVSMVGPFDYWGHGTLVTVSS
VL: B1 VL with E25K, N28S, K29Y, A66S, E94D, N96I, S100G, Q103H
B3: ZIL8: fully canine anti IL-31 antibody, VH SEQ ID NO: 79, VL SEQ ID NO: 81 (antibody, listed as Canis familiaris, V domains shown)
VH: EVQLVESGGDLVKPAGSLRLSCVASGFTFSDYAMSWVRQAPGRGLQWVAGIDSVGSGTSYADAVKGRFTISRDDAKNTLYLQMFNLRAEDTAIYYCASGFPGSFEHWGQGTLVTVSS
VL: QSVLTQPASVSGSLGQKVTISCTGSSSNIGSGYVGWYQQLPGTGPRTLIYYNSDRPSGVPDRFSGSRSGTTATLTISGLQAEDEADYYCSVYDRTFNAVFGGGT
B4: ZIL159: fully canine anti IL-31 antibody, VH SEQ ID NO: 103, VL SEQ ID NO: 105 (antibody, listed as Canis familiaris, V domains shown)
VH: EVQLVESGGDLVKPAGSLRLSCVASGFTFSSYVMTWVRQAPGKGLQWVAGINSEGSRTAYADAVKGRFTISRDNAKNTLYLQIDSLRAEDTAIYYCATGDIVATGTSYWGQGTLVTVSS
VL: SNVLTQPPSVSVSLGQTATISCSGETLNRFYTQWFQQKAGQAPVLVIYKDTERPSGIPDRFSGSSSGNIHTLTISGARAEDEAAYYCKSAVSIDVGVFGGGTHLTVF
B5: ZIL94: fully canine anti IL-31 antibody, VH SEQ ID NO: 95, VL SEQ ID NO: 97 (antibody, listed as Canis familiaris, V domains shown)
VH: EVQLVDSGGDLVKPGGSLRLSCVASGFTFSTYFMSWVRQAPGRGLQWVALISSDGSGTYYADAVKGRFTISRDNAKNTLYLQMNSLRAEDTAMYYCAIFWRAFNDWGQGTLVTVSS
VL: QTVVIQEPSLSVSPGGTVTLTCGLNSGSVSTSNYPGWYQQTRGRTPRTIIYDTGSRPSGVPNRFSGSISGNKAALTITGAQPEDEADYYCSLYTDSDILVFGGGTHLTVL

Experiments:
mAb ZTS-361 = test: Peptide block of mAb ZTS-361 inhibition of IL-31 mediated STAT3 phosphorylation in feline FCWF-4 macrophages; format: cell-based; settings: for IC50, conjugated peptide: CRM197 conjugated, co-incubated 1 hour with 0.2 μM mAb ZTS-361, FCWF-4 cells
Chain of mAb ZTS-361 (as listed by the source): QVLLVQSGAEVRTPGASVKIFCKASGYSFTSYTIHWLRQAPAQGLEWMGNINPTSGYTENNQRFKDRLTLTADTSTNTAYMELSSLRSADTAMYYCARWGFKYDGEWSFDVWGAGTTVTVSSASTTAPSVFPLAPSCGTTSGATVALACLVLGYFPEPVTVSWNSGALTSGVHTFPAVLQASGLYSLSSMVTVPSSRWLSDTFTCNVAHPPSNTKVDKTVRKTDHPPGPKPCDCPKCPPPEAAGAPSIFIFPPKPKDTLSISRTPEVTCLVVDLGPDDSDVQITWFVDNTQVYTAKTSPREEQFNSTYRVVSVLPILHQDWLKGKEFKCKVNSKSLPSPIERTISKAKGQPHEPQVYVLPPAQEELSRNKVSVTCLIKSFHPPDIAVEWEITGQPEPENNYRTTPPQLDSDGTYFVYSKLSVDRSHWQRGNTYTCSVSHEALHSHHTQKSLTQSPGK
Chain of mAb ZTS-361 (as listed by the source): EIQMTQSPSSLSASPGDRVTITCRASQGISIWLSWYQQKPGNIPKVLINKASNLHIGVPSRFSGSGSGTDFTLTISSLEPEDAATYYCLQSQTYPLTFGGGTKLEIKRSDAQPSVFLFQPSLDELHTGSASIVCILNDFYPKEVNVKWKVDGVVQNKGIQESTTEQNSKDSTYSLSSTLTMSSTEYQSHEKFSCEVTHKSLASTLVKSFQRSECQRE

wildtype feline IL-31 = test: Indirect ELISA, binding to wildtype feline IL-31
Chain of wildtype feline IL-31 (as listed by the source): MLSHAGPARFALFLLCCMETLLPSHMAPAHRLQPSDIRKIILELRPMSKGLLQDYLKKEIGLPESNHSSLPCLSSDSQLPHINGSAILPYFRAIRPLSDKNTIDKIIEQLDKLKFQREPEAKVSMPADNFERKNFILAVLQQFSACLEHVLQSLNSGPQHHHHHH
Method: (§1) Mice and dogs were immunized with recombinant canine IL-31 (SEQ ID No. 155) for the purpose of identifying antibodies. Serum antibody titers from immunized animals were determined using an enzyme linked immunosorbent assay (ELISA). Canine or feline IL-31 (50 ng/well) was immobilized to polystyrene microplates and used as a capture antigen. Serum from immunized animals was diluted in phosphate buffered saline with 0.05% tween-20 (PBST). The presence of anti-IL-31 antibodies was detected with an appropriate secondary HRP labeled antibody. Following addition of a chromogenic substrate (SureBlue Reserve TMB 1-Component Microwell Peroxidase Substrate, KPL, Inc., Gaithersburg, Md.) and a ten minute incubation at room temperature (RT) the reaction was stopped with the addition of […] of 0.1 N HCl. The absorbance of each well was determined at an optical density (OD) of 450 nm. Antibodies were selected for their ability to bind canine and feline IL-31 using an ELISA. In some cases, further characterization was performed at the time of selection using an ELISA with a mutant form of the feline IL-31 protein as a capture antigen. Cells producing antibodies with desired binding and inhibitory properties were chosen for sequence analysis of RNA transcripts representing the variable heavy (VH) and variable light (VL) IgG chains.
(§2) For the indirect ELISA method, antibody binding to wildtype and feline IL-31 15H05 mutant proteins was assessed. […] In comparison, the 11E12 antibody bound to the wild-type feline IL-31 and its binding was not impacted by the mutations in the 15H05 epitope region as evidenced by the data in FIG. 4. To confirm binding, biacore analysis was performed using canine, feline, equine, human, feline 15H05 mutant, and feline 11E12 mutant IL-31 proteins as surfaces and a single test concentration of antibody. Similar to ELISA observations, all antibodies tested bound to wildtype feline IL-31. In agreement with the data described above in this section, mouse antibodies 11 E12 and 15H05 both bound to canine and feline IL-31 surfaces. […] From this group of nine fully canine antibodies, only ZIL1 and ZIL9 cross-reacted with equine IL-31. Of note, antibody 15H05 was the only one of all assayed herein that bound to canine, feline, and equine IL-31 indicating some level of epitope conservation across the three species. In contrast, none of the antibodies described herein bound to human IL-31. Additional biacore surfaces were used to verify ELISA observations showing differential binding of antibodies to wildtype feline IL-31 and two proteins with mutations in the 15H05 (15H05 mutant) or 11 E12 (11E12 mutant) epitopes. […] Differing results can be attributed to differences in the two assay methodologies.
(§3) To determine the impact of mAbs 11E12 and 15H05 ability to bind these mutant forms of feline IL-31, an indirect ELISA was run using the mutants directly coated on to an immunoassay plate. […] The minor attenuation of mAb 15H05s binding to the 11E12 mutant is likely due to translational effects of the mutations from movement of the two front helices effecting the 15H05 binding site. The mutations designed to affect mAb 15H05s binding (mutant 15H05) show a complete loss of mAb 1505s ability to bind this IL-31 mutant by ELISA. Unlike the 11E12 mutant, the changes in the random coil recognized by mAb 15H05 (mutant 15H05) had no impact on mAb 11E12 binding further supporting the distinction between the two epitopes (FIG. 6C).

[1] = tested on: feline IL-31 15H05 mutant; test: Indirect ELISA, binding to feline IL-31 15H05 mutant; settings: compared with wildtype
Chain of feline IL-31 15H05 mutant (as listed by the source, change not shown): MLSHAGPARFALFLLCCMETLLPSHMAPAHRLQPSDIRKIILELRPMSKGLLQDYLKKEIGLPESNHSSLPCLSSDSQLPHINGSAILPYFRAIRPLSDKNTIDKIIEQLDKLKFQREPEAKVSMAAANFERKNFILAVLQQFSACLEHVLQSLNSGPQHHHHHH
Method: as §1, §2, §3

canine IL-31 = test: Biacore binding, single test concentration of antibody, canine IL-31 surface
Chain of canine IL-31 (as listed by the source): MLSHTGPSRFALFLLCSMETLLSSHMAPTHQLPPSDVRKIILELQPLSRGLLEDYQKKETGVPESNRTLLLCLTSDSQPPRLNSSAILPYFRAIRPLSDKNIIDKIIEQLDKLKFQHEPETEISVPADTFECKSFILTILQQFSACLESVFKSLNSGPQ
Method: (§4) For the indirect ELISA, binding (ELISA OD) to wildtype feline IL-31 and a feline IL-31 15H05 mutant which had mutations in the monoclonal antibody 15H05 epitope region was assessed. To confirm binding, biacore analysis was performed using canine, feline, equine, human, the feline 15H05 mutant, and feline 11E12 mutant IL-31 proteins as surfaces and a single test concentration of antibody. The feline IL-31 11E12 mutant had mutations in the monoclonal antibody 11E12 epitope region.
as §2

[2] = tested on: feline 15H05 mutant IL-31; test: Biacore binding, single test concentration of antibody, feline 15H05 mutant IL-31 surface
Method: as §4, §2

[3] = tested on: feline 11E12 mutant IL-31; test: Biacore binding, single test concentration of antibody, feline 11E12 mutant IL-31 surface
Chain of feline 11E12 mutant IL-31 (as listed by the source, change not shown): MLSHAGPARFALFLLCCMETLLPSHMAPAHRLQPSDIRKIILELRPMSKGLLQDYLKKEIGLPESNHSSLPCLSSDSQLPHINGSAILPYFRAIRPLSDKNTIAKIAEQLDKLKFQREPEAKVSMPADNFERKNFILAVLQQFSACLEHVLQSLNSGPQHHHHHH
Method: as §4, §2

Row | Molecule | IC50, conjugated peptide (mAb ZTS-361) | decline of potency following conjugation (mAb ZTS-361; conjugated vs unconjugated) | binding to wildtype feline IL-31 (ELISA) (wildtype feline IL-31) | binding to feline IL-31 15H05 mutant (ELISA) [1] | binding to canine IL-31 (Biacore) (canine IL-31) | binding to feline 15H05 mutant IL-31 (Biacore) [2] | binding to feline 11E12 mutant IL-31 (Biacore) [3]
1 | ZTS-564: constrained canine IL-31 15H05 mimotope, N-TEISVPADTFERKSFILT-C plus terminal Cysteines, mT2b linker | poor potency | – | – | – | – | – | –
2 | constrained canine IL-31 15H05 mimotope, N-EISVPADTFERKSF-C plus N and C terminal Cysteines (CEISVPADTFERKSFC; cysteine pairing not given here; also: constrained, mode not given here) [ZTS-562] | 3.024 µg/mL | approximately 3 fold | – | – | – | – | –
3 | constrained canine IL-31 15H05 mimotope, N-TEISVPADTFERKSFILT-C plus N and C terminal Cysteines, mT2a linker [ZTS-561] | poor potency | – | – | – | – | – | –
4 | B1 | – | – | capable of binding | binding was impacted | partial canine binding | – | –
5 | B2 | – | – | capable of binding | binding was impacted | – | partially affected | –
6 | B3 | – | – | capable of binding | binding was impacted | – | – | impacted
7 | B4 | – | – | capable of binding | binding was impacted | dual binding property | – | impacted
8 | B5 | – | – | capable of binding | binding was impacted | dual binding property | – | –

Reference: patent US11433139B2, “Peptide vaccines against interleukin-31” (Zoetis Services LLC, priority 2018, dated 2022)
